In patent publication US20190330320A1 (H LUNDBECK A S, published 2019):
Each block holds one binder with its values, some of them ahead of it.

How the values were obtained:
[1] = target: T1, pathological hyperphosphorylated tau from human Alzheimer's disease brain (AD-P3 antigens) (human, UniProt P10636 2-758, hyperphosphorylated; phosphoserine at 396); experiment: binding to tau isolated from diseased and healthy brains
T1 construct: Brain-derived material with a mixture of tau isoforms and aggregates; Also used for tangles stained in AD brain sections and for the S1, S1p and P3 fractions and lysates of AD brain; also called P3 tau isolated from human AD brains

[2] = target: T2, Antibody C10-2 (humanized C10-2); experiment: fluid phase peptide inhibition of antibody binding to peptide-coated MSD wells
T2 construct: also called human C10-2; hC10-2
Protocol: (§1) FIG. 2. Peptide inhibition assay illustrating apparent affinity hC10-2 and related C10-2 variants.
(§2) Plates were washed 5 times in (PBS, 0.1% BSA, 0.1% NP40) and anti-human total Tau (MSD sulfo tagged 1:50) was added to detect bound antibody which reflect non-inhibited free antibody.

[3] = target: T3, Antibody N32S (hC10-2_N32S); experiment: as above
T3 construct: Variant of humanized C10-2 with light chain N32S; also called hC10-2_N325; C10-2_N325
Protocol: as §1, §2

[4] = target: Antibody N32S, A101T (hC10-2_N32S_A101T); experiment: as above
Protocol: as §1, §2

[5] = target: T4, P-S396 Tau in Alzheimer brain extracts (human, UniProt P10636 2-758, phosphoserine at 396); experiment: immunodepletion of AD brain extract, P-S396 western blot
T4 construct: Brain-derived; Defined by the western blot signal for P-S396; also called S-P396
Protocol: FIG. 16. Quantification of P-S396 Tau western blot signal after immunodepleting Alzheimers diseased brain extracts using different amounts of hC10-2 variants N32S, N32Q, N32S_A101T, N32Q_ A101T, N32Q_D55E and N32S_ D55E.
Samples were boiled in 1×LDS loading buffer and 100 mM DTT. A volume corresponding to 3 μl of extracts were loaded on a 4-12% Bis-Tris NuPAGE Gel (LifeTech Novex). After electrophoresis, the proteins were blotted over to a ImmobilonFL PVDF membrane ([…], IPFL10100, Millipore). The membrane was blocked with SEA blocking buffer (Prod#37527, Thermo). Tau and P-tau levels were assessed in the samples using Tau5 (Abcam ab80579, 1:2000) mouse C10-2 (1 μg/ml), P-5199/202 (Invitrogen 44768 G, 1:1000), P-5422 (Abcam ab79415, 1:750), human IPN (1 μg/ml). Gapdh and actin were used as loading controls (Abcam ab9484, 1:2000, Sigma A5441, 1:20000). Secondary fluorophore conjugated IgG antibodies was used (IRDye 800CW Goat anti-Human, IRDye 800CW, Goat anti-rabbit, IRDye 680 Goat anti-mouse, LI-COR biosciences) and the signal was quantified using Odyssey CLx and Image studio software (LI-COR biosciences). Quantification of individual bands as well as signal in whole lanes was done and from this sigmoidal dose-response curves were plotted and when possible max effect and EC50 values were estimated.

T4 sequence (P10636 other isoform, or with tags, fused parts or gaps limits assumed): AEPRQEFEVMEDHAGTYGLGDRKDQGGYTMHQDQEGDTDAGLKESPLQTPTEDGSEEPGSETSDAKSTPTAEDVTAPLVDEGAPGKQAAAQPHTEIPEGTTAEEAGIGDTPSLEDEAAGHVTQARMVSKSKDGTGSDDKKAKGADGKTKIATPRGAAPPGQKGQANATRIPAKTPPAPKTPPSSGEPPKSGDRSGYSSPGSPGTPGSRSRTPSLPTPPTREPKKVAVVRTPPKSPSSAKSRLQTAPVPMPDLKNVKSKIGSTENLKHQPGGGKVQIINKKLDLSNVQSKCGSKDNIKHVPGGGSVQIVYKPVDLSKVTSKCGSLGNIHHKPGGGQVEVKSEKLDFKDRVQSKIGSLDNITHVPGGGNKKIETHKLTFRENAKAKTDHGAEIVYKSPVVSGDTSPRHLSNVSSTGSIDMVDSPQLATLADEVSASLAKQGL
T1 sequence (P10636 other isoform, or with tags, fused parts or gaps limits assumed): as above

B3: Antibody N32Q (hC10-2_N32Q) (antibody, human IgG1, kappa, V domains shown)
VH: QVQLVQSGAEVVKPGASVKISCKASGYTFTDRTIHWVRQAPGQGLEWIGYIYPGDGSTKYSQKFQGRATLTADTSASTAYMELSSLRSEDTAVYYCARRGAMDYWGQGTSVTVSS
VL: DVQMTQSPSSLSASVGDRVTMTCQASQDTSIQLNWFQQKPGKAPKLLIYGASNLETGVPSRFSGSRSGTDFTLTISSLQPEDMATYYCLQHTYLPFTFGSGTKLEIKR
percent decrease in the S-P396 signal at 75 ng antibody [5]: ≥ 28%

B4: hC10-2 variant N32S_D55E (antibody, human IgG1, kappa, V domains shown)
VH: QVQLVQSGAEVVKPGASVKISCKASGYTFTDRTIHWVRQAPGQGLEWIGYIYPGEGSTKYSQKFQGRATLTADTSASTAYMELSSLRSEDTAVYYCARRGAMDYWGQGTSVTVSS
VL: DVQMTQSPSSLSASVGDRVTMTCQASQDTSISLNWFQQKPGKAPKLLIYGASNLETGVPSRFSGSRSGTDFTLTISSLQPEDMATYYCLQHTYLPFTFGSGTKLEIKR
notes: Chains are put together from the variant names: light chain N32S and heavy chain D55E; also called C10-2_N32S D55E
percent decrease in the S-P396 signal at 75 ng antibody [5]: ≥ 28%

B7: IPN002 (antibody, V domains shown)
VH: EVHLVESGGALVKPGGSLKLSCAASGFSFSKYGMSWVRQTPDKRLEWVATISSSGSRTYYPDSVKGQFTISRDNAKNTLYLQMSSLKSEDTAMYYCSISWDGAMDYWGQGTSVTVSS
VL: DVLMTQTPLSLPVSLGDQASISCKSSQSIVHSNGNTYLEWYLQKPGQSPKLLVYKVSNRFSGVPDRFSGSGSGTDFTLKISRVEAEDLGTYYCFQGSLVPWAFGGGTKLEIK
AD/ctrl (binding to tau from AD brain over tau from healthy control brain) [1]: 3 ratio

More lines, now with the values ahead:

AD/ctrl (binding to tau from AD brain over tau from healthy control brain) [1]: 3 ratio
B1: HJ8.5 (antibody, V domains shown)
VH: EVKVEESGGGLVQPGGSMKLSCVVSGFTFSNYWVNWVRQSPEKGLEWVAQIRLKSDNYATHYEESVKGRFTISRDDSKSSVYLQMNNLRAEDSGIYYCTNWEDYWGQGTTLTVSS
VL: DIVLTQSPASLAVSLGQRATISCRASQSVSTSRYSYIHWYQQKPGQPPKLLIKYASNLESGVPARFSGSGSGTDFTLNIHPLEEEDAATYYCHHSWEIPLTFGAGTKLELK

IC50 [2]: 24 nM
IC50 [3]: 50 nM
IC50 [4]: 34 nM
B2: Ptau (P396) 386-408 peptide (peptide)
peptide: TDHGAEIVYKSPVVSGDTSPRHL
modifications: phosphoserine at 396 (tau numbering)

percent decrease in the S-P396 signal at 75 ng antibody [5]: 16%
B5: hC10-2 variant N32Q_D55E (antibody, human IgG1, kappa, V domains shown)
VH: QVQLVQSGAEVVKPGASVKISCKASGYTFTDRTIHWVRQAPGQGLEWIGYIYPGEGSTKYSQKFQGRATLTADTSASTAYMELSSLRSEDTAVYYCARRGAMDYWGQGTSVTVSS
VL: DVQMTQSPSSLSASVGDRVTMTCQASQDTSIQLNWFQQKPGKAPKLLIYGASNLETGVPSRFSGSRSGTDFTLTISSLQPEDMATYYCLQHTYLPFTFGSGTKLEIKR
notes: Chains are put together from the variant names: light chain N32Q and heavy chain D55E

percent decrease in the S-P396 signal at 75 ng antibody [5]: ≥ 28%
B6: Antibody N32Q, A101T (hC10-2_N32Q_A101T) (antibody, human IgG1, kappa, V domains shown)
VH: QVQLVQSGAEVVKPGASVKISCKASGYTFTDRTIHWVRQAPGQGLEWIGYIYPGDGSTKYSQKFQGRATLTADTSASTAYMELSSLRSEDTAVYYCARRGTMDYWGQGTSVTVSS
VL: DVQMTQSPSSLSASVGDRVTMTCQASQDTSIQLNWFQQKPGKAPKLLIYGASNLETGVPSRFSGSRSGTDFTLTISSLQPEDMATYYCLQHTYLPFTFGSGTKLEIKR
